Molecular target: Fc gamma receptor (Fc(γ)R) on dendritic cells
Test: cell-based or functional assay

Substance: monoclonal antibody 3G4 (ATCC PTA 4545)
- DC uptake of apoptotic tumor cells: 300%
